Data on 94 variants can be found in the supplement of paper PMC10567573.

B1: TMEM175 (parent)
chain: SCTIIFLASIFQLAMWTTALLHQA
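Further: lentivirally expressed fusions sorted by FACS into six bins by GFP to DsRed ratio, PSI derived from sequencing read proportions per bin multiplied by bin number.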

In this data set the parent is B1. Nature of the data set: protein stability index of a GFP-peptide fusion (GPS, HEK-293T) (PSI 1-6); higher = more stable. The settings on record: c terminus: a fixed tail appended.
Take SCTKIFLASIFQLAMWTTALLHQA [I4K]: the protein stability index stood at 3.01. Consider SCTIIFLASIFQLAMWRTALLHQA [T17R], for which the protein stability index stood at 2.01. For the variant SCTIIFLASIFQLAMWDTALLHQA [T17D], the protein stability index amounted to 3.83. Under SCTIIFLASIFQLAMWFTALLHQA [T17F] stands 1.74.

As for SCTIIFLASIFQLAMWETALLHQA [T17E], the protein stability index is 2.36.

With SCTIIFLASIFQLAMWKTALLHQA [T17K], the protein stability index was 2.94. Take SCTIIFLALIFQLAMWTTALLHQA [S9L]: the protein stability index worked out at 3.52.

As to SCTIIFLAKIFQLAMWTTALLHQA [S9K], the protein stability index turned out to be 3.56. The value for SCTIIFLAMIFQLAMWTTALLHQA [S9M] was 2.49; that for SCTIIFLAPIFQLAMWTTALLHQA [S9P] was 2.31; that for SCTIIFLARIFQLAMWTTALLHQA [S9R] was 2.78. Take SCTIIFLAYIFQLAMWTTALLHQA [S9Y]: the protein stability index came to 2.66. The value for SCTIIFLATIFQLAMWTTALLHQA [S9T] was 2.5; that for SCTIIFLASIFQLAMWTEALLHQA [T18E] was 2.78. In the case of SCTIIFLASIFQLAMWTSALLHQA [T18S], the protein stability index came to 3.06.

Turning to SCTIIFLASIFQLAMWTFALLHQA [T18F], the protein stability index was determined as 3.03. The value for SCTIIFLASIFQLAMWTDALLHQA [T18D] was 2.18; that for SCTIIFLASIFQLAMWTCALLHQA [T18C] was 3.17. Under SCTIIFLASIFQLAMWTPALLHQA [T18P] stands 3.36; under SCTIIFLASIFQLAMWTGALLHQA [T18G], 1.6. As to SCTIIFLASIIQLAMWTTALLHQA [F11I], the protein stability index is 2.56. In the case of SCTIIFLASIAQLAMWTTALLHQA [F11A], the protein stability index came to 3.92.

Take SCTIIFLASISQLAMWTTALLHQA [F11S]: the protein stability index worked out at 2.19.

Take SCTIIFLASIYQLAMWTTALLHQA [F11Y]: the protein stability index worked out at 1.79. Under SCTIIFLASIVQLAMWTTALLHQA [F11V] stands 2.09; under SCTIIFLASIRQLAMWTTALLHQA [F11R], 5.97; under SCTIIFLASIQQLAMWTTALLHQA [F11Q], 3.1. Regarding SCTIIFLASINQLAMWTTALLHQA [F11N], the protein stability index came to 2.97. Under SCTIIFLASIFQLAWWTTALLHQA [M15W] stands 3.1; under SCTIIFLASIFQLAHWTTALLHQA [M15H], 2.49.

Take SCTIIFLASIFQLAPWTTALLHQA [M15P]: the protein stability index stood at 3.25. The value for SCTIIFLASIFQLASWTTALLHQA [M15S] was 2.48. Under SCTIIFLASIFQLAFWTTALLHQA [M15F] stands 2.73. Turning to SCTIIFLASIFQLAIWTTALLHQA [M15I], the protein stability index was determined as 2.79. For the variant SCTIIFLASIFQLAAWTTALLHQA [M15A], the protein stability index is 3.24.

Take SCTIIFLASIFQLATWTTALLHQA [M15T]: the protein stability index worked out at 3.17. Turning to SCTIIFLASIFQLADWTTALLHQA [M15D], the protein stability index amounted to 3.28. The value for SCTIIFLASIFQLAYWTTALLHQA [M15Y] was 2.97; that for SCTIIFLASIFQLAVWTTALLHQA [M15V] was 3.45. For SCFIIFLASIFQLAMWTTALLHQA [T3F], the protein stability index is 2.75. As for SCLIIFLASIFQLAMWTTALLHQA [T3L], the protein stability index was determined as 2.92.

For the variant SCIIIFLASIFQLAMWTTALLHQA [T3I], the protein stability index is 3.33. The value for SCWIIFLASIFQLAMWTTALLHQA [T3W] was 3.07.

With SCKIIFLASIFQLAMWTTALLHQA [T3K], the protein stability index turned out to be 2.84.

As for SCAIIFLASIFQLAMWTTALLHQA [T3A], the protein stability index is 3.36.

Take SCEIIFLASIFQLAMWTTALLHQA [T3E]: the protein stability index was determined as 1.72. The value for SCSIIFLASIFQLAMWTTALLHQA [T3S] was 2.57; that for SCDIIFLASIFQLAMWTTALLHQA [T3D] was 2.86. Take SCHIIFLASIFQLAMWTTALLHQA [T3H]: the protein stability index worked out at 2.04.

For SCVIIFLASIFQLAMWTTALLHQA [T3V], the protein stability index stood at 2.11. Under SCQIIFLASIFQLAMWTTALLHQA [T3Q] stands 3; under SCTIIFLASIFQHAMWTTALLHQA [L13H], 3.13; under SCTIIFLASIFQAAMWTTALLHQA [L13A], 2.85. Under SCTIIFLASIFQEAMWTTALLHQA [L13E] stands 2.24; under SCTIIFLASIFQMAMWTTALLHQA [L13M], 2.97. Under SCTIIFLASIFQRAMWTTALLHQA [L13R] stands 1.63. On to SCTIIFLASIFQNAMWTTALLHQA [L13N], for which the protein stability index turned out to be 3.15.

Consider SCTIIFLASIFQSAMWTTALLHQA [L13S], for which the protein stability index is 3.46. Under SCTIIFLASIFQPAMWTTALLHQA [L13P] stands 2.24; under SCTIIFLASIFQIAMWTTALLHQA [L13I], 2.5; under SCTIIFLASIFQLAMWTTALCHQA [L21C], 3.36.

On to SCTIIFLASIFQLAMWTTALAHQA [L21A], for which the protein stability index stood at 1.45. The value for SCTIIFLASIFQLAMWTTALDHQA [L21D] was 3.61; that for SCTIIFLASIFQLAMWTTALPHQA [L21P] was 3.35; that for SCTIIFLASIFQLAMWTTALSHQA [L21S] was 3.45. As for SCTIIFLASIFQLAMWTTALRHQA [L21R], the protein stability index was found to be 3.98.

For the variant SCTIIFLASIFQLAMWTTALMHQA [L21M], the protein stability index was found to be 2.73. Take SCTIIFLASIFQLAMWTTALHHQA [L21H]: the protein stability index was 3.3. Under SCTIIFLASIFQLAMWTTALEHQA [L21E] stands 2.55. The value for SCTIIFLASIFQLAMWTTALNHQA [L21N] was 2.05; that for SCTIIFLASIFQLAMWTTALVHQA [L21V] was 3.72; that for SCTIIFLASIFQLAMWTTALFHQA [L21F] was 2.81. Under SCTIIFLASIFQLKMWTTALLHQA [A14K] stands 3.08.

On to SCTIIFLASIFQLSMWTTALLHQA [A14S], for which the protein stability index worked out at 2.58. Regarding SCTIIFLASIFQLTMWTTALLHQA [A14T], the protein stability index is 2.73. Consider SCTIIFLASIFQLHMWTTALLHQA [A14H], for which the protein stability index amounted to 3. Consider SCTIIFLASIFQLPMWTTALLHQA [A14P], for which the protein stability index was 2.29.

Turning to SCTIIFLASIFSLAMWTTALLHQA [Q12S], the protein stability index amounted to 2.75. As to SCTIIFLASIFLLAMWTTALLHQA [Q12L], the protein stability index came out at 3.15.

As for SCTIIFLASIFCLAMWTTALLHQA [Q12C], the protein stability index amounted to 3.71. For the variant SCTIIFLASIFPLAMWTTALLHQA [Q12P], the protein stability index amounted to 2.3. Under SCTIIFLASIFTLAMWTTALLHQA [Q12T] stands 3.43; under SCTIIFLASIFALAMWTTALLHQA [Q12A], 3.29. The value for SCTIIFLASIFVLAMWTTALLHQA [Q12V] was 2.25. Under SCTIIFLASIFHLAMWTTALLHQA [Q12H] stands 3.19. SCTIIFLASIFQLAMWTTMLLHQA [A19M]: the protein stability index stood at 3.22. The value for SCTIIFLASIFQLAMWTTDLLHQA [A19D] was 2.3; that for SCTIIFLASIFQLAMWTTPLLHQA [A19P] was 4.62; that for SCTIIFLASIFQLAMWTTRLLHQA [A19R] was 2.19. Under SCTIIFLASIFQLAMWTTWLLHQA [A19W] stands 3.12; under SCTIIFLASIFQLAMWTTFLLHQA [A19F], 3.13. For SCTIIFLASIFQLAMWTTTLLHQA [A19T], the protein stability index amounted to 3.07. On to SCTIIFLASIFQLAMWTTLLLHQA [A19L], for which the protein stability index was 2.11.

SCTIIFLASIFQLAMWTTILLHQA [A19I]: the protein stability index is 2.14.
